B1: Autophagy-related protein 18 (Saccharomyces cerevisiae), P43601 (parent)
chain: MSDSSPTINFINFNQTGTCISLGTSKGFKIFNCEPFGKFYSEDSGGYAIVEMLFSTSLLALVGIGDQPALSPRRLRIINTKKHSIICEVTFPTSILSVKMNKSRLVVLLQEQIYIYDINTMRLLHTIETNPNPRGLMAMSPSVANSYLVYPSPPKVINSEIKAHATTNNITLSVGGNTETSFKRDQQDAGHSDISDLDQYSSFTKRDDADPTSSNGGNSSIIKNGDVIVFNLETLQPTMVIEAHKGEIAAMAISFDGTLMATASDKGTIIRVFDIETGDKIYQFRRGTYATRIYSISFSEDSQYLAVTGSSKTVHIFKLGHSMSNNKLDSDDSNMEEAAADDSSLDTTSIDALSDEENPTRLAREPYVDASRKTMGRMIRYSSQKLSRRAARTLGQIFPIKVTSLLESSRHFASLKLPVETNSHVMTISSIGSPIDIDTSEYPELFETGNSASTESYHEPVMKMVPIRVVSSDGYLYNFVMDPERGGDCLILSQYSILMD

Variants of: B1
Settings: with atg2_yeast ATG2, P53855
Sequence of atg2_yeast ATG2, P53855 (P53855 whole entry): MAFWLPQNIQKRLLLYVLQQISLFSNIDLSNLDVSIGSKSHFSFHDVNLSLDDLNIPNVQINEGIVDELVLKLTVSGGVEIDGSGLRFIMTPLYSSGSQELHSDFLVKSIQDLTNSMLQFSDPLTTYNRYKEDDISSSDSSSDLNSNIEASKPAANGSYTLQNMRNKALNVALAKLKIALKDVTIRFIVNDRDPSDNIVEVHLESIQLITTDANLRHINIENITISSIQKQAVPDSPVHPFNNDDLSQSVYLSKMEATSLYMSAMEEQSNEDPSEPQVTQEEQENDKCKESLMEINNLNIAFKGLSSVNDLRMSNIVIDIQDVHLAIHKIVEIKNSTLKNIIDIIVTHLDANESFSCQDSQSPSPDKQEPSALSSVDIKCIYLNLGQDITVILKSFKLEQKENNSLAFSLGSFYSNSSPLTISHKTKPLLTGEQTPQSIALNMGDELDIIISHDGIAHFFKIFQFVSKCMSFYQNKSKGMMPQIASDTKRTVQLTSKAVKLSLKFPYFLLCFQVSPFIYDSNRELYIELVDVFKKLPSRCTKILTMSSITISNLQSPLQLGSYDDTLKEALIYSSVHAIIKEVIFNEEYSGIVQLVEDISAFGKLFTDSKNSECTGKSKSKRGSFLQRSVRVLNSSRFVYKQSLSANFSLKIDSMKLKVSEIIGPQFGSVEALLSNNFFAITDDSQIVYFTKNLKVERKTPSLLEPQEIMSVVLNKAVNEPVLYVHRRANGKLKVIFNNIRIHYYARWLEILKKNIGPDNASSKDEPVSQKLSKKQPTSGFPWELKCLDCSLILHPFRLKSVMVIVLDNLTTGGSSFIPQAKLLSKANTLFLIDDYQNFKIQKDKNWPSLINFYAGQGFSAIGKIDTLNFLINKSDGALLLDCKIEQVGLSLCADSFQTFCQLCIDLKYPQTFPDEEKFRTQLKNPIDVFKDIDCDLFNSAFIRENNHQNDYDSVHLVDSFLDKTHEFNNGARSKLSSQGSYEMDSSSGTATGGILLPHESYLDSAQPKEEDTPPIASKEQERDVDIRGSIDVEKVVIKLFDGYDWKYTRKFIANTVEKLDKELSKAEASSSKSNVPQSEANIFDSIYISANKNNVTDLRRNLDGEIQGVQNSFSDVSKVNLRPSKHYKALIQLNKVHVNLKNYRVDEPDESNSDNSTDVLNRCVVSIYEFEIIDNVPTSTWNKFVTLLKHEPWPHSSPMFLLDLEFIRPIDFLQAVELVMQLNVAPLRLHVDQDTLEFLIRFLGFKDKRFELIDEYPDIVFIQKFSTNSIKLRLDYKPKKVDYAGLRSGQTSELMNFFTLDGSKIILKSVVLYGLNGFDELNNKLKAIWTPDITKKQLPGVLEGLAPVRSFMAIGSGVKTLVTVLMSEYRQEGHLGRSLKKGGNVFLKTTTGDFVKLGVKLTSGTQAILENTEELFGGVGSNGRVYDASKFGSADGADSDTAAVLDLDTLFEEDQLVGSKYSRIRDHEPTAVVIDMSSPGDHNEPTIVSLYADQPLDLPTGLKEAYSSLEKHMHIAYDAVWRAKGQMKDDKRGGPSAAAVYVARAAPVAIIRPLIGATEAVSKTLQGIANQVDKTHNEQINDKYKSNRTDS

Variant | effect of a mutation on the interaction
MSDSSPTINFINFNQTGTCISLGTSKGFKIFNCEPFGKFYSEDSGGYAIVEMLFSTSLLALVGIGDQPALSPRRLRIINTKKHSIICEVAAAAAILSVKMNKSRLVVLLQEQIYIYDINTMRLLHTIETNPNPRGLMAMSPSVANSYLVYPSPPKVINSEIKAHATTNNITLSVGGNTETSFKRDQQDAGHSDISDLDQYSSFTKRDDADPTSSNGGNSSIIKNGDVIVFNLETLQPTMVIEAHKGEIAAMAISFDGTLMATASDKGTIIRVFDIETGDKIYQFRRGTYATRIYSISFSEDSQYLAVTGSSKTVHIFKLGHSMSNNKLDSDDSNMEEAAADDSSLDTTSIDALSDEENPTRLAREPYVDASRKTMGRMIRYSSQKLSRRAARTLGQIFPIKVTSLLESSRHFASLKLPVETNSHVMTISSIGSPIDIDTSEYPELFETGNSASTESYHEPVMKMVPIRVVSSDGYLYNFVMDPERGGDCLILSQYSILMD [T90A;F91A;P92A;T93A;S94A] | decreasing interaction strength

Variants of: B1
Settings: with atg2_yeast ATG2, P53855
Remark: another data set of the same source

Variant | effect of a mutation on the interaction
MSDSSPTINFINFNQTGTCISLGTSKGFKIFNCEPFGKFYSAAAGGAAIVEMLFSTSLLALVGIGDQPALSPRRLRIINTKKHSIICEVAAAAAILSVKMNKSRLVVLLQEQIYIYDINTMRLLHTIETNPNPRGLMAMSPSVANSYLVYPSPPKVINSEIKAHATTNNITLSVGGNTETSFKRDQQDAGHSDISDLDQYSSFTKRDDADPTSSNGGNSSIIKNGDVIVFNLETLQPTMVIEAHKGEIAAMAISFDGTLMATASDKGTIIRVFDIETGDKIYQFRRGTYATRIYSISFSEDSQYLAVTGSSKTVHIFKLGHSMSNNKLDSDDSNMEEAAADDSSLDTTSIDALSDEENPTRLAREPYVDASRKTMGRMIRYSSQKLSRRAARTLGQIFPIKVTSLLESSRHFASLKLPVETNSHVMTISSIGSPIDIDTSEYPELFETGNSASTESYHEPVMKMVPIRVVSSDGYLYNFVMDPERGGDCLILSQYSILMD [E42A;D43A;S44A;Y47A;T90A;F91A;P92A;T93A;S94A] | disrupting interaction strength

Variants of: B1
Settings: with atg2_yeast ATG2, P53855
Remark: another data set of the same source

Variant | effect of a mutation on the interaction
MSDSSPTINFINFNQTGTCISLGTSKGFKIFNCEPFGKFYSEDSGGYAIVEMLFSTSLLALVGIGDQPALSPRRLRIINTKKHSIICEVTFPTSILSVKMNKSRLVVLLQEQIYIYDINTMRLLHTIETNPNPRGLMAMSPSVANSYLVYPSPPKVINSEIKAHATTNNITLSVGGNTETSFKRDQQDAGHSDISDLDQYSSFTKRDDADPTSSNGGNSSIIKNGDVIVFNLETLQPTMVIEAHKGEIAAMAISFDGTLMATASDKGTIIRVFDIETGDKIYQFAAGTYATRIYSISFSEDSQYLAVTGSSKTVHIFKLGHSMSNNKLDSDDSNMEEAAADDSSLDTTSIDALSDEENPTRLAREPYVDASRKTMGRMIRYSSQKLSRRAARTLGQIFPIKVTSLLESSRHFASLKLPVETNSHVMTISSIGSPIDIDTSEYPELFETGNSASTESYHEPVMKMVPIRVVSSDGYLYNFVMDPERGGDCLILSQYSILMD [R285A;R286A] | disrupting interaction strength
